According to the NTF2 design screens of Basanta et al. (2020):

Experiment: protease stability score; higher = more stable; yeast display proteolysis, trypsin and chymotrypsin;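 note: relative to predicted unfolded state with 0 unfolded-like and 1 meaning tenfold more protease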

Row | Sequence | protease stability score
1 | DETREEVYEMAVRILENEITGDWKKLYDLVDPDTRLDINGRHVIGREEMIKLFEWWLKHIRIKEIRLSHVEAVNGKADLKSNVHGTIDGVEHDVRRTIHIDIVDGRVKRIEVRTR | 1.29
2 | DETREHTEHIMNIILHALHTGDEHLIRDMIDPHVRWELIIDGQTHNHIGRDEWEKLLEELGIDRIEVILKRFRIFENHSEVKGTIHINGKDADVVIYILVINGKIKEIRIIHV | 2.19
3 | DETREIAIKMIELWIHAVKTGDEDRMTELLDPNALLIIGDKKIHGRENLLRFWKRIDHHHLRHIEIKEITFFNGQVEDDGIVEEELRVNGREFEIDSRVLYILKKVDGRWIMRTIEVK | 1.88
4 | DETRELLDRLWERLVKALRTGDEDHVHDMLDPHVRIEIGDKILHGREALEVLWKRIDHISIHDFKLKRERRFENRIEVDGEVDGIVRIDGRENRHVTDTHYILVKIDGQWLIKTIHIK | 2.29
5 | DETRETLERFWHILVRAEKTGDERIFYEMLDPNAQLNVNGRTFHGREILVKIFHEWRVHDSEIREIDIQGDKVDMHVHSDIQVGDKRIRTDMRIIMVKIDGKWLIRTLKVE | 2.16
6 | DETRRHTEELFHWLLRAFMTGDFKLSYDNADPDVRFIINGRRDHGRDLYVRDLRHMRVHDSKVNHIHFEFQGDWAVVRVDGHIFGEYDGQHFNLRVEIRIIINKIDGRWSLESVEIRIH | 0.812
7 | DETSREEEEHARLWTHAWLTGDEELFKKLADPHVKTEIDGRDLIGRDEMTRMFHDLLRELGVKHSTIEEIHIVNGRVEIRISIEVDGRPIKVRIHVEFFNGRVQRIQIRYE | 0.903
8 | DETTDEMDKSLERFLDVVRTGDEHEDVHLADPHARIEFENRDIHGMKEHASQRIRVMLKFGWEVHIKFRHLRQVDGRLDVRLELRIKFDGVLYHLDTNEYWRKFDGRWVLDSMEFH | 1.24
9 | DETTEDDRRRYEEFLMAEITGDFHLVEKLHDPDVRFVLVIGDKIHIHHGREDVRKWIEHDFRKFKNARIELHDVKAYDGRVEIHGRVQVDGVRFDVHITIIIINGRVKEQRLNIR | 2.12
10 | DETTEHMVHFFKETLHAIRTGDFKAQEELFDPNARVDVGDYKFHGRETISEWLRRRNEQLGFKHIEIRINHVEYINGKISVIGSVDSDINGVRIRHERREEYVVINGVLTLVRLEHR | 1.12
11 | DETTEHVRKLTELLLRSWVTGDEETDEKMADPNVRIIFEGREVHGMHWFSRVVKELRIEHVQIHDERFKVFEGRAEMRVDTHLRGTQGNYHDERKVRVEIHIIKVNGRWHLETIRVSVH | 1.21
12 | DETTEIQEKLAKELMRLLLTGNEEEIMKNADPDVREHVLVDGKHINNIGREEVHRVRRELLEKVKNLRIRINRVEIQGEKVRMETTLHIDGQDIHVIYIFIIINGRIKEVHIEIR | 0.708
13 | DETTEKNERYIERLHHYLETGNEEELLHLFDPNTKFVQGDKEIIGREEVRHWEEEKRRKMGIKHWDFEFRRVRIIGEKLIIHGKEIINFENHRLERTVEIHLLLIDGRVKEVVYHVN | 1.2
14 | DETTELAREAIELLVKSLRTGDWDTSSRLLDPHTRYHYGEFNSHGREMFIISLEFLWKHLRIEDVHITHIRSIGDKVDVDTVLRVNVNGQVVDVEFFIHAHKVNGKWLYTEIRVR | 1.16
15 | DETTELTQTVSQVFLDIWRTGDEDALRHLADPNTRLEVGEKTFHGRERVTEYVSRFKNVTVHLRRVTVQGNKVHIDSEMDFNGRKSDLHVELLVVDGRLKEIHVDIRWL | 1.84
16 | DETTELVHEVWRVHLESLMTGDFDKFHELADPNAKVDVHYDGRRDDNHGREKLSHQIKRILQEWRVTIRINREDAIGNKLHVDSDLRVNYDGVEIRVRLLSIIVVVNGRFKSIEYHVL | 1.29
17 | DETTELVHRLIELFLNSLHTGDEKTMVKLADPHARVEVRINGRKEEYHGMEHWSEHLIRRLEHLRIEIRIHDMQWFEGHAQVHTELIVRYDGKEMRTSVQVHLFIVNGRFKSSIVIIH | 1.05
18 | DETTETLLRISESNIRNWETGDFDTIKQLLDPHVRMEQGDKTNHGRERVAKSWTEFLRELRLKTVHLHEVDVQGEKALSHVILFVKIGDKKIEVEAHLLVVVIDGKVSSIHITIK | -0.305
19 | DETTHELEWFTKIVAHAIETGDFEVMLNLIDPNVRVQEIIDGREIEFHGWHAFEHWMRKFKNITIIIRHVHHQGNKVEIEGEIDFNGKRRDVRIRFHVWNGRVKEFRHEER | 1.52
20 | DETTKLTEELLRLIWEVLITGDEHLFERLADPHVRVDEIYGDKRIELHGRERVSTRLHELRIKRVELKEIEVFNGRSHANTHVNGHIDGVTFRSDTRWEFVMIDGKLEEVRRKIE | 0.597
21 | DETTKLVEEVTRLLERAWETGDEETIYQLLDPNVKWNINGVDFHGMEHLAREIIHELRRHGFRVRFRLHHIDIQGDKARVESIEHIHIGNKHIHRRTYLFLSKVNGVWSIQEQRVE | 1.44
22 | DETTQYIREILEIMRRTFHTGDFDTMLELMDPHARIVIGEKDEHGWEAAHHQMEYLLREWRIHDVEIRDVELQGDKIRVKLIVTGRIGDKLTLIDVELHVLKVNGKWYLKEISIR | 1.19
23 | DEVDDEVDKMLEFVLDSWETGDEHINRDLMDPNVLVEAENRTLIGREWAEEFLHSIKKRFPNMRVQLHDMRVVGDKVELDTELRYGEYHNRTHIIALKVNGKWLVEKVHFH | 1.13
24 | DEVDEDEKHALHLLEHSIKTGDERMITEMMDPRYRLIINGQEFHGRELWIELWQRIKNIRINDVKFEELRVVGNKLRVRVHLDVQIGDKRYILDTEIVAVKVNGRWLNEEIIIR | 1.39
25 | DEVDHMIELVTRLFIHAVLTGDEKILRDLMDPHVRVHVDGKKLHGWKEFIDWLREELERYDHFHFRVHHYNVVNGRVHADGNLDVHFNGRKHHITTDLRLIIWDGRIKTVDIRHH | 1.75

Row | Sequence | protease stability score
26 | DEVEELAKRLLEELIHALETGDFDHNRHLLDPNVRIVIGEKDHVGWREVTKALRHMGIDHIHVRIHRIEVQGDKVHTESSVEMDINGKKLEFDTWLILRKVNGRWLFHSIEIR | 1.44
27 | DEVEELIEENRRFFEESWMTGDEDSLRKNADPNVRLKVGEFHLIGREAFETWARQAVHMDSIEIHHMHFFDGVVHSITHFDGKFNGRKERHSIYLVELKVNGRWLNHEIRLK | 0.511
28 | DEVEENAIRIAEDMLNNVLTGDEHLLRQLLDPHVRFILIVGDKTYTWHGREDFLEWLRKRLKQIDHEHIIIRDIKVVGDKAHIDGELHINVNGRTEDTRVHWDILVINGRIHKIRIIIH | 1.38
29 | DEVEERMKRIVKHFVSAVLTGNFRHMEQLFDPNYKHRIEIGDKIVNLHGWEAVVKWIEEEWRRFDHVEIRIRDMDVIGNKSEVHGDLHLKAENHTLEIHVIEHFFIVNGKLHHIEKTHH | -0.007
30 | DEVEHHMKTITDRLLTAIETGDEDEWERLLDPRVRVDIGDKHIHGREDYNRKFRERGFEIKRWEMKDMDVINGQIRIDGHRKIHIDGVTTRNTVHIIIVVYNGRVKHFEHRHE | 0.578
31 | DEVEHIVRWMVELLMRALQTGDEETLTRLMDPHARHEIDGKESHGREFLDTLKRRFKNIQWHSIEIEDYKHYDGRVEIHGILHVRVGDKRHEIHIEFVIQKIDGRWHVDRLHLK | 1.55
32 | DEVEHLLELMFRLIIETIRTGDEKLLEHLVDPNAKSLIDGRDYHGREMARHWHNRVDHLNDVHINDRKVQGEKIELDVRVDGRVGDKRIDERVHIIAFKINGQWIIHKMEVR | 0.991
33 | DEVEKFSRDMLHFVRHLWETGDPHLFSRLADPHAQVHIGDKRLHGREEFEKHIEEMIERFPGIRLNLRHFEVQGDKMLVNFEIRVGEKNFTIHLEARKINGRWYIESVEVR | 0.894
34 | DEVEKHLVHLTHRWIHSLLTGDEETISELLDPHARFNQGEWHHHGRELELRYWKEIRFKEMRISRYTAQGDKYHLDTELKGQVDGKEVRVRTHVHLVWVNGRAQSIYVEIH | 1.02
35 | DEVEKIVYDFLQRHIEHLLTGDEDSFTHNLDPHVRIHIDGQRLIGREDARREVRRLGFDHVEITKIEHQGEKLIVHGTMIINGQEIHLTIYIWKINGRWVVQSIEIK | 0.706
36 | DEVEKSVKEWVNIVIHWLKTGNEEEILKYADPNVRLNVNGVNYVGRENAEHASREHLHELGIKHEEQKDVKIHSINGRMLLIIHMRLEYDGQHHEVTIIVRTIKINGRWHIHEVEIRND | 1.21
37 | DEVERDSELALREFYHAFRTGDEHTLVDLADPRTLTIWNGVELHGREEMKRLWHKVKNITVHDHHIDHERLIGNFVYMDVTIDGTFNGRRYRVRSHMVILKINGKWLYEKQHYE | 1.16
38 | DEVERHLKEIFKDLERALNTGDEDRFEHLMDPHARYDVNGVEFIGMRWFRKLVKEIRIRHVDMRLEDVRHVGDFVKMITRIHIEVDINGKNDERETRTILIMHKIDGRWEIKEVIFL | 1.38
39 | DEVERWAKEIAELFLKLYLTGNWKNLERLLDPHMQFIIDGVRIHGREEMREFIRHEREFFKGMRHEITDSHVDVQGEKVEVHLHIEVIVNGQKHVRHINLHIEKIDGQWLIKLVIIHHE | 1.26
40 | DEVHEEAERASEHFFESLLTGDEKSTESFIDPHAKMEFSFNGRNYDMIGRMWVEIEHRLLGIDHYIHKDNRTHSQGEKLLLIIHGRIRVGDKEFDVELHVIMMKIDGQWNVKRLEVRVK | 1.25
41 | DEVIEELERFHRTYQHAVHTGDEETHADLMDPNVRIHIGDKHIHGREWLIELVHRLGFKHSKEHWIIRRYDLQGNKVDEDGEVKRILNINGVLEHEERRVRIIILKIDGKWIIHSMHIR | 0.433
42 | DEVKEDTRRFFERIERALKTGDEDELKRMMDPHVQIHAENHEFHGREALRHFLERYDVVRDIKINDWRIINGRIQIDGEVEGVFNGRDKETHTIMILLKINGKWVITSLTIN | 2.09
43 | DEVKKETDEFSEKFRHALLTGDEEEIEKMADPHVKVDIDGREHHGREEWSEIYREWIHKRGVRIKHIRDHEVRIINGRAIIDQRVHGIVNGQETTLEMHFTTTKIDGRWILTEVFVK | 1.42
44 | DEVKKFLDELLEILRKYSETGDEDSYTEMFDPNTRLLFEGRKFVGREEAIKFLRRVDVFSIKNFTMRHVETQGDWLHIDGEVLLLIIFNGKTFELKTKITFIMLKIDGRWILHAEEIR | 1.71
45 | DEVQRDAEEFWRLLVEALVTGDEDLWRKLADPHMRLDVNGVEIHGMEHYLKRIIEEMRRLGVELKDFRLHDVDIQGNKMHLKTHIDGRVNGQKNTRREEYVITKIDGRWQLESIKVH | 2.04
46 | DEVTEIAERFLEEFIQHHETGDEDRIRHLMDPHVRLTQGDKTLHGREEASRVVIELAKRIDHLHIKLTTIRVQGEKVYIHTELRMEVGDKELRFHVTFIFLKVNGRWRMHSVHIE | 1.06
47 | DEWDEHLEHVAKLIIELLLTGDEETLSRLADPHTRLEWNGRETHGRENMQETLIKILKEIWIHDIRIRHVRTQGDKAHVEGEQDGIINGVRRILDVRILIVVFNGRLRSLRFQID | 0.693
48 | DEWDEKLHHFFELMSHAMETGDEHMQDELADPHVRLIINGVDYIGRERFREMVKRVDYFSVRDIHFKDKEIQGDFIHFRGTLNGEEIINGVRIEKEVDFKLLILKVDGRWFLESEERR | 0.668
49 | DEWDEMLHEWAERIIKHFITGDWESFVKMADPHVRLHVDGKDFIGRERMEEAFKELLERLGVDHVELHHVRVINGQNDVDEDVKVGNKRLKVIHHLVVYNGRIKSIEIETR | 1.39
50 | DEWDNAREELKRMLFKLLETGDEDSFKRLIDPDARQHIDGQEIHGRERVYEIFYRIKNMTVHHIEDKHYEIVNGQIHSDVRIDMIVNGKRITLNIRVVMIKIDGKWYLHSEKIS | 1.6
